How the values were obtained:
[1] = target: His-tagged hNRP2 (amino acids 146 to 595), a2b1b2 domains, for crystallization (human, UniProt O60462-3); experiment: crystal structure
[2] = target: biotinylated NRP2 (epitope binning) (Homo sapiens, UniProt O60462-3, biotin (site not stated)); experiment: BLI
[3] = target: T1, human NRP2 (v2, NM_003872.3), untagged, stably overexpressed on Expi293F cells (Expi293F-hNRP2) (human, UniProt O60462-3 21-926); experiment: flow cytometry on cells
T1 sequence (looked up): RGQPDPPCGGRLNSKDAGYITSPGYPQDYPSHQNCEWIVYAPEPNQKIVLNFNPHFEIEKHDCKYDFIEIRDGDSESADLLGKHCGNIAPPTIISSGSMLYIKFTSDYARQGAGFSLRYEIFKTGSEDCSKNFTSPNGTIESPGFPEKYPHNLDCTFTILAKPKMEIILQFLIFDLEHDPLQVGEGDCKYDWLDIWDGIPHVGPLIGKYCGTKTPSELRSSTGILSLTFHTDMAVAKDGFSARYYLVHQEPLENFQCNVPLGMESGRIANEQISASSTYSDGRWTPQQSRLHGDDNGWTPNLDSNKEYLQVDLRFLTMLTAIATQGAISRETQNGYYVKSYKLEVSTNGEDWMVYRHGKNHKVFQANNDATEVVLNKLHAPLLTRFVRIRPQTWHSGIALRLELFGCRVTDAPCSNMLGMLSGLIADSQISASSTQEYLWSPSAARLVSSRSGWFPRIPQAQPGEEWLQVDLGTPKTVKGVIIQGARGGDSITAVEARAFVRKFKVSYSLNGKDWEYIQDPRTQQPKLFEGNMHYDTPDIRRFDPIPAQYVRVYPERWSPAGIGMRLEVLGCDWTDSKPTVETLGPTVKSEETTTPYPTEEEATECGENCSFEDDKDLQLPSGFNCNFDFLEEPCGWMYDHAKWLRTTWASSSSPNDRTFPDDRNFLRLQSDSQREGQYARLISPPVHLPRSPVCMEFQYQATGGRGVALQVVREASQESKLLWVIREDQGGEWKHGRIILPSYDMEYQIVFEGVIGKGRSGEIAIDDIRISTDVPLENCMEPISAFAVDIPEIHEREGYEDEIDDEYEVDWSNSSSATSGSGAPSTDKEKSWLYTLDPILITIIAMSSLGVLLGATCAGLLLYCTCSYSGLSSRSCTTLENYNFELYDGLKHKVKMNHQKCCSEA

B1: aNRP2-10 Fab (Fab, V domains shown)
VH: EVQLVQSGAEVKKPGATVKISCKVSGFNIKDYYIHWVQQAPGKGLEWMGRIDVEDDETKYAPKFQGRVTITADTSTDTAYMELSSLRSEDTAVYYCATPIYGSREAWFAYWGQGTLVTVSS
VL: DIQMTQSPSSLSASVGDRVTITCTASSSVSSSYLHWYQQKPGKAPKLLIYRTSNLASGVPSRFSGSGSGTDFTLTISSLQPEDFATYYCHQYYRSPPTFGGGTKVEIK
binding result [1]: binds

B2: Genentech aNRP2B antibody (antibody, V domains shown)
VH: EVQLVESGGGLVQPGGSLRLSCAASGFTITSSGIHWVRQAPGKGLEWVARITPYDGSTDYADSVKGRFTISADTSKNTAYLQMNSLRAEDTAVYYCARYRGRLLFDYWGQGTLVTVSS
VL: not shown
binding result [2]: binds

B3: recombinant human VEGF-C, untagged (ligand, UniProt P49767 112-227, looked up)
chain: AHYNTEILKSIDNEWRKTQCMPREVCIDVGKEFGVATNTFFKPPCVSVYRCGGCCNSEGLQCMNTSTSYLSKTLFEITVPLSQGPKPVTISFANHTSCRCMSKLDVYRQVHSIIRR
EC50 [3]: 0.6 nM
